According to patent US20050191626, “Method for forming a stable complex comprising a transcription product and translation product of a dna encoding a desired polypeptide, a nucleic acid construct used for the method, a complex formed by the method, and screening of a functional protein and mrna or dna encoding the protein using the …” (published 2005):

Key:
[1] = target: T1, DHFR-(RE)2 (DHFR fused to two tandem Tat-derived RE peptides) (UniProt P04608); experiment: EMSA; conditions: apparent Kd; 10 mM Tris-HCl pH 8.0, 70 mM NaCl, 2 mM EDTA, 0.1% NP-40, 40 nM tRNA, 30 C
T1 sequence: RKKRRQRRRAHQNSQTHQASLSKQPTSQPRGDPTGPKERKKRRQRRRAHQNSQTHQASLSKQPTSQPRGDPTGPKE

[2] = target: T2, DHFR-(RE)3 (DHFR fused to three tandem Tat-derived RE peptides) (UniProt P04608); experiment: EMSA; conditions: apparent Kd; 10 mM Tris-HCl pH 8.0, 70 mM NaCl, 2 mM EDTA, 0.1% NP-40, 40 nM tRNA, 30 C
T2 sequence: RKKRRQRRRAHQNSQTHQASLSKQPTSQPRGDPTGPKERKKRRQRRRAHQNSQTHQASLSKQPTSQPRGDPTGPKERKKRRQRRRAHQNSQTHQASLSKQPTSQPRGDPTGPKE

[3] = target: T3, DHFR-(RE)1 (DHFR fused to one HIV Tat-derived RE peptide) (UniProt P04608); experiment: EMSA; conditions: apparent Kd; 10 mM Tris-HCl pH 8.0, 70 mM NaCl, 2 mM EDTA, 0.1% NP-40, 40 nM tRNA, 30 C
T3 sequence: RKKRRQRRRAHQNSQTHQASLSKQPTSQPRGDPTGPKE

[4] = target: dihydrofolate reductase (DHFR), wild type (UniProt P0ABQ4 P0ABQ4:1-159); experiment: EMSA; no mobility change with increasing wild-type DHFR; conditions: tags: poly-His (pET30a); label: 5'-32P

## AAAAAACGAAGCUUGAUCCCGUUUGCCGGUCGAUCGCUUCGAAAAAACGAAGCUUGAUCCCGUUUGCCGGUCGAUCGCUUCG [(Apt)2 two tandem Tat aptamers via A6 linker]
[1]
  Kd: < 0.2 nM

## AAAAAACGAAGCUUGAUCCCGUUUGCCGGUCGAUCGCUUCGAAAAAACGAAGCUUGAUCCCGUUUGCCGGUCGAUCGCUUCGAAAAAACGAAGCUUGAUCCCGUUUGCCGGUCGAUCGCUUCG [(Apt)3 three tandem Tat aptamers via A6 linkers]
[2]
  Kd: < 0.016 nM

## AAAAAACGAAGCUUGAUCCCGUUUGCCGGUCGAUCGCUUCG [(Apt)1 Tat aptamer]
[3]
  Kd: < 24 nM

## AAAAAACGAAGCUUGAUCCCGUUUGCCGGUCGAUCGCUUCG (ssRNA) [(Apt)1 Tat aptamer]
[4]
  binding result: no binding

B1: (Apt)2 two tandem Tat aptamers via A6 linker (ssRNA)
RNA: AAAAAACGAAGCUUGAUCCCGUUUGCCGGUCGAUCGCUUCGAAAAAACGAAGCUUGAUCCCGUUUGCCGGUCGAUCGCUUCG
[4]
  binding result: no binding

B2: (Apt)3 three tandem Tat aptamers via A6 linkers (ssRNA)
RNA: AAAAAACGAAGCUUGAUCCCGUUUGCCGGUCGAUCGCUUCGAAAAAACGAAGCUUGAUCCCGUUUGCCGGUCGAUCGCUUCGAAAAAACGAAGCUUGAUCCCGUUUGCCGGUCGAUCGCUUCG
[4]
  binding result: no binding
